The target of one assay is HcAb.RR359.L110A. Description: BLI. Background: In BLI a coated tip is dipped into the sample, and binding shifts an interference pattern.
The target of a further assay is HcAb.RR359.D107A. Description: BLI.

B1: mEGFR-His recombinant protein (receptor)
chain: LEEKKVCQGTSNRLTQLGTFEDHFLSLQRMYNNCEVVLGNLEITYVQRNYDLSFLKTIQEVAGYVLIALNTVERIPLENLQIIRGNALYENTYALAILSNYGTNRTGLRELPMRNLQEILIGAVRFSNNPILCNMDTIQWRDIVQNVFMSNMSMDLQSHPSSCPKCDPSCPNGSCWGGGEENCQKLTKIICAQQCSHRCRGRSPSDCCHNQCAAGCTGPRESDCLVCQKFQDEATCKDTCPPLMLYNPTTYQMDVNPEGKYSFGATCVKKCPRNYVVTDHGSCVRACGPDYYEVEEDGIRKCKKCDGPCRKVCNGIGIGEFKDTLSINATNIKHFKYCTAISGDLHILPVAFKGDSFTRTPPLDPRELEILKTVKEITGFLLIQAWPDNWTDLHAFENLEIIRGRTKQHGQFSLAVVGLNITSLGLRSLKEISDGDVIISGNRNLCYANTINWKKLFGTPNQKTKIMNNRAEKDCKAVNHVCNPLCSSEGCWGPEPRDCVSCQNVSRGRECVEKCNILEGEPREFVENSECIQCHPECLPQAMNITCTGRGPDNCIQCAHYIDGPHCVKTCPAGIMGENNTLVWKYADANNVCHLCHANCTYGCAGPGLQGCEVWPSGPKIPS
By koff is commonly meant a measure of how fast the partners let go of each other. Read a high koff as a short-lived complex. Take B1: the koff in the assay with HcAb.RR359.L110A turned out to be 0.00425 s⁻¹; in the assay with HcAb.RR359.D107A it was 0.00135 s⁻¹.

The record behind these values is paper PMC9599842 (2022).
